IntAct's records for PubMed 21139563

B1: Importin-13 (Homo sapiens), O94829 (parent)
chain: MERREEQPGAAGAGAAPALDFTVENVEKALHQLYYDPNIENKNLAQKWLMQAQVSPQAWHFSWQLLQPDKVPEIQYFGASALHIKISRYWSDIPTDQYESLKAQLFTQITRFASGSKIVLTRLCVALASLALSMMPDAWPCAVADMVRLFQAEDSPVDGQGRCLALLELLTVLPEEFQTSRLPQYRKGLVRTSLAVECGAVFPLLEQLLQQPSSPSCVRQKVLKCFSSWVQLEVPLQDCEALIQAAFAALQDSELFDSSVEAIVNAISQPDAQRYVNTLLKLIPLVLGLQEQLRQAVQNGDMETSHGICRIAVALGENHSRALLDQVEHWQSFLALVNMIMFCTGIPGHYPVNETTSSLTLTFWYTLQDDILSFEAEKQAVYQQVYRPVYFQLVDVLLHKAQFPSDEEYGFWSSDEKEQFRIYRVDISDTLMYVYEMLGAELLSNLYDKLGRLLTSSEEPYSWQHTEALLYGFQSIAETIDVNYSDVVPGLIGLIPRISISNVQLADTVMFTIGALSEWLADHPVMINSVLPLVLHALGNPELSVSSVSTLKKICRECKYDLPPYAANIVAVSQDVLMKQIHKTSQCMWLMQALGFLLSALQVEEILKNLHSLISPYIQQLEKLAEEIPNPSNKLAIVHILGLLSNLFTTLDISHHEDDHEGPELRKLPVPQGPNPVVVVLQQVFQLIQKVLSKWLNDAQVVEAVCAIFEKSVKTLLDDFAPMVPQLCEMLGRMYSTIPQASALDLTRQLVHIFAHEPAHFPPIEALFLLVTSVTLTLFQQGPRDHPDIVDSFMQLLAQALKRKPDLFLCERLDVKAVFQCAVLALKFPEAPTVKASCGFFTELLPRCGEVESVGKVVQEDGRMLLIAVLEAIGGQASRSLMDCFADILFALNKHCFSLLSMWIKEALQPPGFPSARLSPEQKDTFSQQILRERVNKRRVKEMVKEFTLLCRGLHGTDYTADY

Variants of: B1
Conditions: with mgn_human MAGOH

| effect of a mutation on the interaction | Variant |
| --- | --- |
| disrupting interaction | R803E |
| disrupting interaction | K802E |
